Experimental data: publication PMC7969950
Numbering of substitutions follows the chain as printed. Names may count otherwise.

B1: wild-type Flag-CTNNA1 (in MCF10A cells), P35221 Y419A; V422A; L897A; F900A (protein)
chain: MTAVHAGNINFKWDPKSLEIRTLAVERLLEPLVTQVTTLVNTNSKGPSNKKRGRSKKAHVLAASVEQATENFLEKGDKIAKESQFLKEELVAAVEDVRKQGDLMKAAAGEFADDPCSSVKRGNMVRAARALLSAVTRLLILADMADVYKLLVQLKVVEDGILKLRNAGNEQDLGIQYKALKPEVDKLNIMAAKRQQELKDVGHRDQMAAARGILQKNVPILYTASQACLQHPDVAAYKANRDLIYKQLQQAVTGISNAAQATASDDASQHQGGGGGELAYALNNFDKQIIVDPLSFSEERFRPSLEERLESIISGAALMADSSCTRDDRRERIVAECNAVRQALQDLLSEYMGNAGRKERSDALNSAIDKMTKKTRDLRRQLRKAVMDHVSDSFLETNVPLLVLIEAAKNGNEKEVKEAAQAFREHANKLIEVANLACSISNNEEGVKLVRMSASQLEALCPQVINAALALAAKPQSKLAQENMDLFKEQWEKQVRVLTDAVDDITSIDDFLAVSENHILEDVNKCVIALQEKDVDGLDRTAGAIRGRAARVIHVVTSEMDNYEPGVYTEKVLEATKLLSNTVMPRFTEQVEAAVEALSSDPAQPMDENEFIDASRLVYDGIRDIRKAVLMIRTPEELDDSDFETEDFDVRSRTSVQTEDDQLIAGQSARAIMAQLPQEQKAKIAEQVASFQEEKSKLDAEVSKWDDSGNDIIVLAKQMCMIMMEMTDFTRGKGPLKNTSDVISAAKKIAEAGSRMDKLGRTIADHCPDSACKQDLLAYLQRIALYCHQLNICSKVKAEVQNLGGELVVSGVDSAMSLIQAAKNLMNAVVQTVKASYVASTKYQKSQGMASLNLPAVSWKMKAPEKKPLVKREKQDETQTKIKRASQKKHVNPVQAASEAKAMDSI
B2: wild-type Flag-CTNNA1 (in MCF10A cells), P35221 L897A; F900A (protein)
chain: B1 chain with A419Y, A422V
B3: wild-type Flag-CTNNA1 (in MCF10A cells), P35221 Y419A; V422A (protein)
chain: B1 chain with A897L, A900F

What follows are binders tested against endogenous LC3 (MCF10A cells), Q9GZQ8 (assay: co-immunoprecipitation (Flag-Trap), immunoblot). Settings: chain shown with the change; BafA1-treated MCF10A cells; parent: 1.0.

Compared with B1, B2 is lower in ratio to parent: 0.29 for the first, 0.22 for the second.

B3 was tested, and the ratio to parent was 0.23.
